The values below come from PMC12952242.

Data set [1] relates to ZNF207 full-length WT. The data set can be described thus: EMSA. (A gel shift assay detects complexes by their altered migration in electrophoresis.)
The subject of data set [2] is ZNF207 full-length K42E. Kind of data set: EMSA.

The term Kd denotes the constant that tells how readily two partners part at equilibrium. Read a high Kd as weaker binding. For the substance U1 snRNA, the results for the Kd in data set [1] and in data set [2] were 48.7 nM and 60.4 nM, respectively.
